Holding throughout (assay): cell-based or functional assay
In experiment [1] the target is hGLP-1R (Homo sapiens, UniProt P43220).
Experiment [2] has as its target human glucagon receptor (human) (UniProt P47871).
Experiment [3] has as its target T1, human GIP receptor (human) (UniProt P48546).
T1 sequence (looked up): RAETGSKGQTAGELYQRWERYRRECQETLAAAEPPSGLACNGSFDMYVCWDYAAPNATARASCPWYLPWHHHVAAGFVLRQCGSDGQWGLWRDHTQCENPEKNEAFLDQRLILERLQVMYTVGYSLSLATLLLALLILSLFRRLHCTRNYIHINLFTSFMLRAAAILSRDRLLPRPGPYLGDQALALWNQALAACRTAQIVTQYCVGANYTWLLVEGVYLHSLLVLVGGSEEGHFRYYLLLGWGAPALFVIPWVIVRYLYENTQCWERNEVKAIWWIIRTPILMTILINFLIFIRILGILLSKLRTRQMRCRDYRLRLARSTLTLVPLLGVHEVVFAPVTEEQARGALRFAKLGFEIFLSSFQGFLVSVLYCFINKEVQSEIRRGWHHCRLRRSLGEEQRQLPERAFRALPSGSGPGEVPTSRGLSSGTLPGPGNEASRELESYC

Twelve molecules from US20240270821A1, “GIP/GLP1/GCG TRI-RECEPTOR AGONISTS AND USES THEREOF” (priority 2023, published 2024) can be followed below.

Sequence of human glucagon receptor (human) (P47871 26-477): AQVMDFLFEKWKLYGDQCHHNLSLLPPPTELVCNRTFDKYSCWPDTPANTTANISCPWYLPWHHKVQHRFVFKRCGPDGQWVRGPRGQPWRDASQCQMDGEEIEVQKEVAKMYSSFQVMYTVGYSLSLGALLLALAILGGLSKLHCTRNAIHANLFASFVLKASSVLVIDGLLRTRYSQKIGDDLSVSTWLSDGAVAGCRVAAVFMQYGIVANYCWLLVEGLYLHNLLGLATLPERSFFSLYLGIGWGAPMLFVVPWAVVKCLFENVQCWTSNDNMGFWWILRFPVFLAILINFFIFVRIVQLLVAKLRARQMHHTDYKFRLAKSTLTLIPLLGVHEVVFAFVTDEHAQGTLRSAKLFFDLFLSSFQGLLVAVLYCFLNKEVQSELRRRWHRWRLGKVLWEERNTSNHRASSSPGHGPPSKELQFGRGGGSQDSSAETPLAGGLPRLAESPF
Sequence of hGLP-1R (P43220 24-463): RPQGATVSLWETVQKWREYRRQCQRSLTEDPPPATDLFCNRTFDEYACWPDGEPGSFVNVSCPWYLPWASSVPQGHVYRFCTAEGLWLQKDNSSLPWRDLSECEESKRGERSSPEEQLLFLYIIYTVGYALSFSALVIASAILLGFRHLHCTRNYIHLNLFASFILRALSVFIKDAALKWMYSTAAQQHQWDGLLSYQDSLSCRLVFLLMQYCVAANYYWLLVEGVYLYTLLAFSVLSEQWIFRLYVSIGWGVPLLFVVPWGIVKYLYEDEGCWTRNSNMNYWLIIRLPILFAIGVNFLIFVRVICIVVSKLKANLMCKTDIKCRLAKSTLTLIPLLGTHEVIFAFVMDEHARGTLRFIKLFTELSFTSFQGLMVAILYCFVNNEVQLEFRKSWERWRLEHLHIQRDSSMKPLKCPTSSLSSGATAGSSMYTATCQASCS

B1: Example 210 (peptide)
chain: YXQGTFTSDFSXXLDKKAQXAFIEYLLEAGPSSGAPPPSGT
modifications: non-natural residues, lysine acylation, C-terminal amide; synthetic construct; SITE 2: note = 2-Aminoisobutyric Acid; SITE 12: note = L-ornithine; SITE 13: note = alpha-methyl-leucine; SITE 17: note = Lysine is chemically modified through conjugation of the epsilon-amino group of the Lysine side chain with (2-[2-(2-Amino-ethoxy)-ethoxy]-acetyl)-(gamma-Glu)
On to B1, for which the Relative cAMP EC50 in experiment [1] was determined as 1.44 nM; in experiment [2], 2.81 nM; in experiment [3], 0.153 nM.

B2: Example 221 (peptide)
chain: YXQGTFTSDFSRXLDKKAQXAFIEYLIEXGESSGAPPPSGS
modifications: C-terminal amide; lysine acylated with AEEA-γ-Glu-C18 diacid; synthetic construct; SITE 2: note = 2-Aminoisobutyric Acid; SITE 13: note = alpha-methyl-leucine; SITE 17: note = Lysine is chemically modified through conjugation of the epsilon-amino group of the Lysine side chain with (2-[2-(2-Amino-ethoxy)-ethoxy]-acetyl)-(gamma-Glu)-CO-(CH2) 16-CO2H; SITE 20: n
For B2, the figures for the Relative cAMP EC50 in experiment [1], in experiment [2] and in experiment [3] were 0.629 nM, 11.3 nM and 0.105 nM, respectively.

B3: Example 218 (peptide)
chain: YXQGTFTSDFSXXLDKKAQXAFIEYLIEXGESSGAPPPSGS
modifications: acylated Lys, C-terminal amide, non-natural residues; synthetic construct; SITE 2: note = 2-Aminoisobutyric Acid; SITE 12: note = L-ornithine; SITE 13: note = alpha-methyl-leucine; SITE 17: note = Lysine is chemically modified through conjugation of the epsilon-amino group of the Lysine side chain with (2-[2-(2-Amino-ethoxy)-ethoxy]-acetyl)-(gamma-Glu)
Consider B3, for which the Relative cAMP EC50 in experiment [1] was found to be 0.76 nM; in experiment [2], 7.89 nM; in experiment [3], 0.0853 nM.

B4: Example 235 (peptide)
chain: YXQGTFTSDFSXXLDKKAQXAFIEYLLEGGPSSGAXPPGGS
modifications: Aib, Orn, αMeL, Hyp; AEEA-γGlu-C18 diacid on Lys; C-terminal amide; synthetic construct; SITE 2: note = 2-Aminoisobutyric Acid; SITE 12: note = L-ornithine; SITE 13: note = alpha-methyl-leucine; SITE 17: note = Lysine is chemically modified through conjugation of the epsilon-amino group of the Lysine side chain with (2-[2-(2-Amino-ethoxy)-ethoxy]-acetyl)-(gamma-Glu)
Regarding B4, the Relative cAMP EC50 in experiment [1] is 3.55 nM; in experiment [2], 4.35 nM; in experiment [3] it was 0.388 nM. The figures for the cAMP Rel EC50, nM (1% HSA) in experiment [1], in experiment [2] and in experiment [3] were 457 nM, 700 nM and 40.8 nM, respectively.

B5: Example 259 (peptide)
chain: YXQGTFTSDFSXXLDKKAQXAFIEYLLEAGPSSGAPPPSGH
modifications: synthetic construct; SITE 2: note = 2-Aminoisobutyric Acid; SITE 12: note = L-ornithine; SITE 13: note = alpha-methyl-leucine; SITE 17: note = Lysine is chemically modified through conjugation of the epsilon-amino group of the Lysine side chain with (2-[2-(2-Amino-ethoxy)-ethoxy]-acetyl)-(gamma-Glu)
Regarding B5, the Relative cAMP EC50 was 1.47 nM in experiment [1], 2.55 nM in experiment [2] and 0.114 nM in experiment [3]. The cAMP Rel EC50 (in the presence of 1% HSA) in experiment [1] was determined as 220 nM; in experiment [2], 317 nM; in experiment [3] it was 18.4 nM.

B6: Example 262 (peptide)
chain: YXQGTFTSDFSXXLDKKAQXAFIEWLLEGGPSSGAPPPEGX
modifications: synthetic construct; SITE 2: note = 2-Aminoisobutyric Acid; SITE 12: note = L-ornithine; SITE 13: note = alpha-methyl-leucine; SITE 17: note = Lysine is chemically modified through conjugation of the epsilon-amino group of the Lysine side chain with (2-[2-(2-Amino-ethoxy)-ethoxy]-acetyl)-(gamma-Glu)
With B6, the Relative cAMP EC50 in experiment [1] came to 4.39 nM; in experiment [2], 9.77 nM; in experiment [3] it was 0.232 nM. Besides, the figures for the cAMP Rel EC50 (in the presence of 1% HSA) in experiment [1], in experiment [2] and in experiment [3] were 400 nM, 720 nM and 40.4 nM, respectively.

B7: Example 219 (peptide)
chain: YXQGTFTSDFSXXLDKKAQXAFIEYLIEXGESSGAPPPSGE
modifications: non-natural residues; lipidated Lys; C-terminal amide; synthetic construct; SITE 2: note = 2-Aminoisobutyric Acid; SITE 12: note = L-ornithine; SITE 13: note = alpha-methyl-leucine; SITE 17: note = Lysine is chemically modified through conjugation of the epsilon-amino group of the Lysine side chain with (2-[2-(2-Amino-ethoxy)-ethoxy]-acetyl)-(gamma-Glu)
In the case of B7, the Relative cAMP EC50 in experiment [1] stood at 0.835 nM; in experiment [2], 7.77 nM; in experiment [3], 0.119 nM.

B8: Example 236 (peptide)
chain: YXQGTFTSDFSXXLDKKAQXAFIEYLLEGGPSSGAPXPGGS
modifications: Aib, Orn, αMeL, Hyp; acylated Lys; C-terminal amide; synthetic construct; SITE 2: note = 2-Aminoisobutyric Acid; SITE 12: note = L-ornithine; SITE 13: note = alpha-methyl-leucine; SITE 17: note = Lysine is chemically modified through conjugation of the epsilon-amino group of the Lysine side chain with (2-[2-(2-Amino-ethoxy)-ethoxy]-acetyl)-(gamma-Glu)
With B8, the values for the Relative cAMP EC50 in experiment [1], in experiment [2] and in experiment [3] were 3.33 nM, 2.23 nM and 0.309 nM, respectively. The cAMP Rel EC50, nM (1% HSA) is 261 nM in experiment [1], 309 nM in experiment [2] and 24.8 nM in experiment [3].

B9: Example 243 (peptide)
chain: YXQGTFTSDFSXXLDKKAQXAFIEYLLEXGHSSGAPPPSGS
modifications: Aib, Orn, αMeL; lipidated Lys; C-terminal amide; synthetic construct; SITE 2: note = 2-Aminoisobutyric Acid; SITE 12: note = L-ornithine; SITE 13: note = alpha-methyl-leucine; SITE 17: note = Lysine is chemically modified through conjugation of the epsilon-amino group of the Lysine side chain with (2-[2-(2-Amino-ethoxy)-ethoxy]-acetyl)-(gamma-Glu)
As for B9, the Relative cAMP EC50 in experiment [1] stood at 6.46 nM; in experiment [2], 6.86 nM; in experiment [3], 0.178 nM.

B10: Example 216 (peptide)
chain: YXQGTFTSDFSKXLDKKAQXAFIEYLIEXGESSGAPPPSGS
modifications: Aib, αMeL; K acylated AEEA-γGlu-C18 diacid; C-amide; synthetic construct; SITE 2: note = 2-Aminoisobutyric Acid; SITE 13: note = alpha-methyl-leucine; SITE 17: note = Lysine is chemically modified through conjugation of the epsilon-amino group of the Lysine side chain with (2-[2-(2-Amino-ethoxy)-ethoxy]-acetyl)-(gamma-Glu)-CO-(CH2) 16-CO2H; SITE 20: n
As to B10, the results for the Relative cAMP EC50 in experiment [1], in experiment [2] and in experiment [3] were 0.52 nM, 2.7 nM and 0.0887 nM, respectively. For the same molecule, the cAMP Rel EC50, nM (1% HSA) in experiment [1] came to 90.6 nM; in experiment [2], 895 nM; in experiment [3] it was 12 nM.

B11: Example 244 (peptide)
chain: YXQGTFTSDFSXXLDKKAQXAFIEYLLEXGESSGAPPPSGS
modifications: Aib, Orn, αMeL; γGlu-AEEA-γGlu-C18 diacid on Lys; C-terminal amide; synthetic construct; SITE 2: note = 2-Aminoisobutyric Acid; SITE 12: note = L-ornithine; SITE 13: note = alpha-methyl-leucine; SITE 17: note = Lysine is chemically modified through conjugation of the epsilon-amino group of the Lysine side chain with (gamma-Glu)-(2-[2-(2-Amino-ethoxy)-ethoxy]-acetyl)
As for B11, the Relative cAMP EC50 came out at 7.68 nM in experiment [1], 4.81 nM in experiment [2] and 0.0972 nM in experiment [3]. For the same molecule, the cAMP Rel EC50, nM (1% HSA) in experiment [1] was 645 nM; in experiment [2], 1230 nM; in experiment [3], 18.8 nM.

B12: Example 260 (peptide)
chain: YXQGTFTSDFSXXLDKKAQXAFIEYLLEGGPSSGAPPPSGT
modifications: synthetic construct; SITE 2: note = 2-Aminoisobutyric Acid; SITE 12: note = L-ornithine; SITE 13: note = alpha-methyl-leucine; SITE 17: note = Lysine is chemically modified through conjugation of the epsilon-amino group of the Lysine side chain with (gamma-Glu)2-CO-(CH2)16-CO2H; SITE 20: note = 2-Am
B12: the Relative cAMP EC50 in experiment [1] is 3.85 nM; in experiment [2], 5.04 nM; in experiment [3] it was 0.251 nM. In addition, the cAMP Rel EC50 (in the presence of 1% HSA) in experiment [1] amounted to 160 nM; in experiment [2], 162 nM; in experiment [3], 12.4 nM.
